# Biological target: hMLH1-hMLH3 (human, UniProt P40692;Q9UHC1)
# Test: pull-down
# Chain of hMLH1-hMLH3 (P40692 whole entry, chain 1 of 2): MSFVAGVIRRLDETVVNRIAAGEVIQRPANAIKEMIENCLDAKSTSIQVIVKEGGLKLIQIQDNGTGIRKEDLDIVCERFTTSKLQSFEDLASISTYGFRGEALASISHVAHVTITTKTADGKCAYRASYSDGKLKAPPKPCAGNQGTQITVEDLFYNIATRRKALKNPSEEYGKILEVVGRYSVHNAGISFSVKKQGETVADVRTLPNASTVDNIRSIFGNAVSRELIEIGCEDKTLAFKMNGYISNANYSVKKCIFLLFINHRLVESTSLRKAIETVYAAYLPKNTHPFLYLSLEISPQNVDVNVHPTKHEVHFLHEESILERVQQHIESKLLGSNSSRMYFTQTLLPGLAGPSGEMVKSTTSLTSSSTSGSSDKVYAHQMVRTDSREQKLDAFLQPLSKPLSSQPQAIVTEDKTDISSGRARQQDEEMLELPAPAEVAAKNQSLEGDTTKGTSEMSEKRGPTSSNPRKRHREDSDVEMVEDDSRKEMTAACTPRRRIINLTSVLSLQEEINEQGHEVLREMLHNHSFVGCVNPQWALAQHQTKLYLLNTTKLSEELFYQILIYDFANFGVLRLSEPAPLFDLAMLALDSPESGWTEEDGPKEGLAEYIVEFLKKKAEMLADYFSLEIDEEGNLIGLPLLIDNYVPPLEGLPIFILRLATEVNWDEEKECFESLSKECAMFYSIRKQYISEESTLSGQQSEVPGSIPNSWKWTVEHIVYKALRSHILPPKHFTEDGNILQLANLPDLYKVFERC
# Chain of hMLH1-hMLH3 (Q9UHC1 whole entry, chain 2 of 2): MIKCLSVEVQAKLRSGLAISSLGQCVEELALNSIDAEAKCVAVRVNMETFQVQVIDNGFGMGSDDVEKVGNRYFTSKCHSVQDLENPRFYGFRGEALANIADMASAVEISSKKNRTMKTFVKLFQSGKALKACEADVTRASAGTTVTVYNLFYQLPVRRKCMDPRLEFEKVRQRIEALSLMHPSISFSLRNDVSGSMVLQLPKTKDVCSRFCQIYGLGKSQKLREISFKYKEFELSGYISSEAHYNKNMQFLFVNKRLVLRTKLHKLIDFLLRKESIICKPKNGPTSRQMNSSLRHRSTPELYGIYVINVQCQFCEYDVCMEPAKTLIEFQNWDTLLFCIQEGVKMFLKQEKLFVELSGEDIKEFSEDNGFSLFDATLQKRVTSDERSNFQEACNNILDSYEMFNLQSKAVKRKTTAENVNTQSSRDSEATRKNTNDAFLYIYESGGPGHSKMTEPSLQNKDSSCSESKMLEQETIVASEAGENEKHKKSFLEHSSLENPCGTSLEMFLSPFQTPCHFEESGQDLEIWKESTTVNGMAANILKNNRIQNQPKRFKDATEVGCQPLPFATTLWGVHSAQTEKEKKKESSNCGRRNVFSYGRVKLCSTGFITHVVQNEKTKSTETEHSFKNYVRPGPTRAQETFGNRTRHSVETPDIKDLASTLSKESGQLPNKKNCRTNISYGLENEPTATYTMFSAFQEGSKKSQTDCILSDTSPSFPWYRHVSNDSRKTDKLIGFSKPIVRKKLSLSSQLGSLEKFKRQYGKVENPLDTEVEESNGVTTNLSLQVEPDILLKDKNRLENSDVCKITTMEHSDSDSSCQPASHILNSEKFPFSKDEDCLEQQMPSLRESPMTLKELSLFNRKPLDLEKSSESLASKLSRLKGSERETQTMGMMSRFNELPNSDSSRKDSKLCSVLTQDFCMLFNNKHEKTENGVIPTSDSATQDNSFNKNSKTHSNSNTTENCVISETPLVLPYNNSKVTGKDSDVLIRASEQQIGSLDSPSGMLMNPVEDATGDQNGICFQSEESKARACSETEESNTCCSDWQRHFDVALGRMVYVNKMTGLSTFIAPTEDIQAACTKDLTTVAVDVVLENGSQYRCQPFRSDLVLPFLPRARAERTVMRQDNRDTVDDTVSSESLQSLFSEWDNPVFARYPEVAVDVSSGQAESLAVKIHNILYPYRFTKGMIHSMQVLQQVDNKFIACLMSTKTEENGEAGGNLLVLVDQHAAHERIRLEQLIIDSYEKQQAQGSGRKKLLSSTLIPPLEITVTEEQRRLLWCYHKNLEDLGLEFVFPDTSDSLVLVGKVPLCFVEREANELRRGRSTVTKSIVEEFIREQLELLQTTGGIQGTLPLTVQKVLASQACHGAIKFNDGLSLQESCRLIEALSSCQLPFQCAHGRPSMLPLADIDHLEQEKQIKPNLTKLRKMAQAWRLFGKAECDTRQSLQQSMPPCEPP
binder,measurement,value
hEXO1(D173A) (enzyme) MGIQGLLQFIKEASEPIHVRKYKGQVVAVDTYCWLHKGAIACAEKLAKGEPTDRYVGFCMKFVNMLLSHGIKPILVFDGCTLPSKKEVERSRRERRQANLLKGKQLLREGKVSEARECFTRSINITHAMAHKVIKAARSQGVDCLVAPYEADAQLAYLNKAGIVQAIITEDSALLAFGCKKVILKMDQFGNGLEIDQARLGMCRQLGDVFTEEKFRYMCILSGCDYLSSLRGIGLAKACKVLRLANNPDIVKVIKKIGHYLKMNITVPEDYINGFIRANNTFLYQLVFDPIKRKLIPLNAYEDDVDPETLSYAGQYVDDSIALQIALGNKDINTFEQIDDYNPDTAMPAHSRSHSWDDKTCQKSANVSSIWHRNYSPRPESGTVSDAPQLKENPSTVGVERVISTKGLNLPRKSSIVKRPRSAELSEDDLLSQYSLSFTKKTKKNSSEGNKSLSFSEVFVPDLVNGPTNKKSVSTPPRTRNKFATFLQRKNEESGAVVVPGTRSRFFCSSDSTDCVSNKVSIQPLDETAVTDKENNLHESEYGDQEGKRLVDTDVARNSSDDIPNNHIPGDHIPDKATVFTDEESYSFESSKFTRTISPPTLGTLRSCFSWSGGLGDFSRTPSPSPSTALQQFRRKSDSPTSLPENNMSDVSQLKSEESSDDESHPLREEACSSQSQESGEFSLQSSNASKLSQCSSKDSDSEESDCNIKLLDSQSDQTSKLRLSHFSKKDTPLRNKVPGLYKSSSADSLSTTKIKPLGPARASGLSKKPASIQKRKHHNAENKPGLQIKLNELWKNFGFKKDSEKLPPCKKPLSPVRDNIQLTPEAEEDIFNKPECGRVQRAIFQ,binding result,binds
